According to publication doi:10.1101/2020.08.20.256677v1 (biorxiv, 2020):
Values belong to the molecule of their own block, whether it stands above or below them.

What was measured:
DnfA = DnfA (Alcaligenes ammonioxydans, UniProt A0ABX8SXK4); test: biochemical
purified protein = substrate: NO; test: purified protein; conditions: 480 μM FAD, 10 mM NADH, 21% O2, 0.6 μM DnfA, 30 °C, 25-400 μM NH2OH

- Kd (DnfA): 160 ± 20 nM
Molecule: NO [hydroxylamine]

B1: DnfA (Alcaligenes ammonioxydans) (protein)
chain: MTIKSYETDDAVRNMLQKLSVLWKNRAAVNQELPDYNNLAFDPNKADFSECLLPFREHQAWLEAPEELKSQCLSYAWGIYNLKTIYVECNVVTPSCEDIIKTPPPSANRNLLQDVMSQALLDEALHTRMSIMACNYIYSMRGLQPLDFTNFNLVQWRNDILSQCSSESERRLTRFAIACASETLITDYLKTMAEDKSIQTICHEVTRTHAMDEWSHSSVFSFVASDIIHGLSQKEREHMRAVILRTVEMFANNEMGAWEKVFSMVNFPNARDILHDTGDSNEIGVYTGSVESLIERIGLNSKSGQAQAQDEQQEALQ
- Km (purified protein): 48.1 ± 6.0 µM
- kcat (purified protein): 0.31 ± 0.02 s⁻¹
